Source: patent US20250388641A1 (CUGENE, published 2025)

T1: huIL-15Rβ-6His (human, UniProt P14784 27-240, limits assumed)
T1 construct: Coated on the ELISA plate; also called hull-15Rβ-6His; IL-15Rβ subunit
T1 sequence: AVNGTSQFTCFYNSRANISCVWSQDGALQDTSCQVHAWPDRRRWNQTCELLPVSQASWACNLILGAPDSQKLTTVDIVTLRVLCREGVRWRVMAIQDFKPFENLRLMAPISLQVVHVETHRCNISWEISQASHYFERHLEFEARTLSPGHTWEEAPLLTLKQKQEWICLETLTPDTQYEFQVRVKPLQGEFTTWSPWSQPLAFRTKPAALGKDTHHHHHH


How the values were obtained:
huIL-15Rβ-6His [1] = biological target: T1, huIL-15Rβ-6His; assay: ELISA binding EC50 relative to wild type P-0153
Protocol: (§1) The binding activity was tested in ELISA assay. Briefly, Nunc Maxisorp (ThermoFisher) plates were coated overnight at 4° C. with hull-15Rβ-6His at 1 ug/well (100 μl/well) in bicarbonate buffer pH 9.4 (ThermoFisher). After washing 3 times with PBS/0.05% Tween20, plates were incubated with SuperBlock (300 μl/well) at room temperature for 2 hrs. to block nonspecific binding. After washing, IL-15 compounds each at 3-fold serial dilutions with blocking buffer were added to the plates (100 μl/well) and incubated at room temperature for 1 hr. After washing, the Fc fusions were detected by 1 hr. incubation at room temperature with a goat anti-human IgG Fc secondary antibody conjugated with horseradish peroxidase (HRP) at 1:5000 dilution in blocking buffer (ThermoFisher) (100 μl/well). After washing, TMB substrate (ThermoFisher) was added (100 μl/well). Plates were sealed and incubated 5-20 min at room temperature in dark. Reaction was stopped by adding 2N sulfuric acid (Ricca Chemical) (50 μL/well) and absorbance was read at 450-590 nm.

huIL-15Rβ-6His [2] = biological target: T1, huIL-15Rβ-6His; assay: ELISA, huIL-15Rβ-6His coated on plate, anti-human IgG Fc-HRP detection
Protocol: as §1

huIL-15Rβ-6His [3] = biological target: T1, huIL-15Rβ-6His; assay: ELISA binding EC50 relative to wild type (3.9 nM)
Protocol: as §1

huIL-15Rβ-6His [4] = biological target: T1, huIL-15Rβ-6His; assay: ELISA binding to IL-15Rβ, relative to wild type (repeats Table 3)
Protocol: as §1

Row | Fold change (huIL-15Rβ-6His [1]) [fold] | EC50 (huIL-15Rβ-6His [2]) [nM] | Fold change (huIL-15Rβ-6His [3]) [fold] | Fold change in binding EC50 (huIL-15Rβ-6His [4]) [fold] | Binder
1 | 36 | 23.1 |  |  | P-0178, IL-15/IL-15Rα heterodimeric Fc fusion, IL-15i3 (… insertion after N95) (Fc fusion) chain 1: DKTHTCPPCPAPEAAGAPSVFLFPPKPKDTLMISRTPEVTCVVVDVSHEDPEVKFNWYVDGVEVHNAKTKPREEQYNSTYRVVSVLTVLHQDWLNGKEYKCKVSNKALPAPIEKTISKAKGQPREPQVYTLPPCREEMTKNQVSLSCAVKGFYPSDIAVEWESNGQPENNYKTTPPVLDSDGSFFLVSKLTVDKSRWQQGNVFSCSVMHEALHNHYTQKSLSLSPGEPKSSDKTHTSPPSPNWVNVISDLKKIEDLIQSMHIDATLYTESDVHPSCKVTAMKCFLLELQVISLESGDASIHDTVENLIILANNSLSSNGNVTESGCKECEELEEKNGSSGSSGGSIKEFLQSFVHIVQMFINTS chain 2: DKTHTCPPCPAPEAAGAPSVFLFPPKPKDTLMISRTPEVTCVVVDVSHEDPEVKFNWYVDGVEVHNAKTKPREEQYNSTYRVVSVLTVLHQDWLNGKEYKCKVSNKALPAPIEKTISKAKGQPREPQVCTLPPSREEMTKNQVSLWCLVKGFYPSDIAVEWESNGQPENNYKTTPPVLDSDGSFFLYSKLTVDKSRWQQGNVFSCSVMHEALHNHYTQKSLSLSPGEPKSSDKTHTSPPSPITCPPPMSVEHADIWVKSYSLYSRERYICNSGFKRKAGTSSLTECVLNKATNVAHWTTPSLKCIRDPALVHQRPAPP
2 |  | 5.57 | 1.4 | 1.4 | P-0181, IL-15/IL-15Rα heterodimeric Fc fusion, IL-15m3 (Q108S, D30T, V31Y, H31E) (Fc fusion) chain 1: DKTHTCPPCPAPEAAGAPSVFLFPPKPKDTLMISRTPEVTCVVVDVSHEDPEVKFNWYVDGVEVHNAKTKPREEQYNSTYRVVSVLTVLHQDWLNGKEYKCKVSNKALPAPIEKTISKAKGQPREPQVYTLPPCREEMTKNQVSLSCAVKGFYPSDIAVEWESNGQPENNYKTTPPVLDSDGSFFLVSKLTVDKSRWQQGNVFSCSVMHEALHNHYTQKSLSLSPGEPKSSDKTHTSPPSPNWVNVISDLKKIEDLIQSMHIDATLYTESTYEPSCKVTAMKCFLLELQVISLESGDASIHDTVENLIILANNSLSSNGNVTESGCKECEELEEKNIKEFLQSFVHIVSMFINTS chain 2: DKTHTCPPCPAPEAAGAPSVFLFPPKPKDTLMISRTPEVTCVVVDVSHEDPEVKFNWYVDGVEVHNAKTKPREEQYNSTYRVVSVLTVLHQDWLNGKEYKCKVSNKALPAPIEKTISKAKGQPREPQVCTLPPSREEMTKNQVSLWCLVKGFYPSDIAVEWESNGQPENNYKTTPPVLDSDGSFFLYSKLTVDKSRWQQGNVFSCSVMHEALHNHYTQKSLSLSPGEPKSSDKTHTSPPSPITCPPPMSVEHADIWVKSYSLYSRERYICNSGFKRKAGTSSLTECVLNKATNVAHWTTPSLKCIRDPALVHQRPAPP
